Data on three molecules can be found in article PMC1802561 (Nucleic Acids Research, 2006).

The target of series [1] is T1, YefM (native, intein-cleaved) (Escherichia coli, UniProt P69346 1-83).
T1 sequence: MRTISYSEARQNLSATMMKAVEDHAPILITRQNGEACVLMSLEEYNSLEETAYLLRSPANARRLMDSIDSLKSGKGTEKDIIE
As to the kind of experiment: EMSA.

The target of a further series is T2, YoeB (native, untagged) (Escherichia coli, UniProt P69348 1-84).
T2 sequence: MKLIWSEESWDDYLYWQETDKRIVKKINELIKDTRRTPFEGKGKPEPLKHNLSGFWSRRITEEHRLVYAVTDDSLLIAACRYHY
As to the kind of experiment: EMSA.

A further series concerns the target T3, YefM-His6 (Escherichia coli, UniProt P69346 1-83).
T3 sequence: T1 sequence
As to the kind of experiment: EMSA.

For another series, the target named is T4, His10-YefM (Escherichia coli, UniProt P69346 1-83).
T4 sequence: T1 sequence
As to the kind of experiment: EMSA.

The target of series [2] is T5, YefM (native, intein-cleaved);YoeB (native, untagged) (Escherichia coli;Escherichia coli, UniProt P69346;P69348 1-83;1-84, |).
T5 sequence 1: T1 sequence
T5 sequence 2: T2 sequence
As to the kind of experiment: EMSA.

In series [3] the target is T6, YoeB-His6 (Escherichia coli, UniProt P69348 1-84).
T6 sequence: T2 sequence
Description: EMSA.

The next series addresses T7, native YoeB (Escherichia coli, UniProt P69348 1-84).
T7 sequence: T2 sequence
Description: native gel or EMSA.

The series “cross-linking” concerns the molecule itself. Description: cross-linking.
The target in series [4] is T8, YoeB-His6 (Escherichia coli, UniProt P69348 1-84).
T8 sequence: T2 sequence
Description: cross-linking.

B1: 99 bp yefM-yoeB promoter-operator (oligos 1/2) (dsDNA)
DNA 1: GTCGAGAATTCTCTACAAACTAATTAATAAATAGTTAATTAACGCTCATCATTGTACAATGAACTGTACAAAAGAGGAGATTGACATGGGATCCAGTGC
DNA 2: GCACTGGATCCCATGTCAATCTCCTCTTTTGTACAGTTCATTGTACAATGATGAGCGTTAATTAACTATTTATTAATTAGTTTGTAGAGAATTCTCGAC
On to B1, for which the binding result in series [1] is “binds”; with YoeB (native, untagged) it was “no binding”; in the series with YefM-His6 it was “binds”; with His10-YefM, “binds”; in [2] it was “binds”; with YoeB-His6 [3], “no binding”.

B2: native YefM (natural protein)
chain: T1 sequence
With B2, the binding result in the series with native YoeB was “binds”. In addition, the “stoichiometry N” value in “cross-linking” amounted to 2.

B3: YefM of the YefM–YoeB–His6 complex (natural protein)
chain: T1 sequence
Take B3: the “stoichiometry N” value in “cross-linking” worked out at 2. Moreover, the binding result with YoeB-His6 [4] is given as “binds”.
